Assay results reported in patent US20250215412A1 (NOVOZYMES A S, published 2025).

Columns and labels:
Assay in all cases: cell-based or functional assay
[1] = target: T1, Chryseobacterium sp-62563 deamidase S258E (Chryseobacterium sp-62563)
T1 chain: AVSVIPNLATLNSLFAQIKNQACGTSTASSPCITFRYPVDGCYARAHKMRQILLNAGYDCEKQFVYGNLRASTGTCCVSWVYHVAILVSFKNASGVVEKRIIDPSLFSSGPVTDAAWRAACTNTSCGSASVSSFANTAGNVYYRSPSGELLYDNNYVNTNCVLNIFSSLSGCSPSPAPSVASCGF

[2] = target: T2, Chryseobacterium sp-62563 deamidase V190M (Chryseobacterium sp-62563)
T2 chain: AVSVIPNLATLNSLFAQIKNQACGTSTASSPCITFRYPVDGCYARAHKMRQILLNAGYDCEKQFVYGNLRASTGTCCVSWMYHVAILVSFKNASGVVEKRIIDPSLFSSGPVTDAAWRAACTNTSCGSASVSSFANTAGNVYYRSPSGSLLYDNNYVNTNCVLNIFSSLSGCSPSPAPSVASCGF

[3] = target: T3, Chryseobacterium sp-62563 deamidase V190G (Chryseobacterium sp-62563)
T3 chain: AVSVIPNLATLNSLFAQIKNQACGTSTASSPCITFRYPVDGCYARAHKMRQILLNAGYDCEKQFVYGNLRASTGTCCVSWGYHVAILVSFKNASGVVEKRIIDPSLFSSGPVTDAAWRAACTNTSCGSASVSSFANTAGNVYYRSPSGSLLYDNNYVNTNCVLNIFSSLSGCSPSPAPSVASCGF

[4] = target: T4, Chryseobacterium sp-62563 deamidase Y252S (Chryseobacterium sp-62563)
T4 chain: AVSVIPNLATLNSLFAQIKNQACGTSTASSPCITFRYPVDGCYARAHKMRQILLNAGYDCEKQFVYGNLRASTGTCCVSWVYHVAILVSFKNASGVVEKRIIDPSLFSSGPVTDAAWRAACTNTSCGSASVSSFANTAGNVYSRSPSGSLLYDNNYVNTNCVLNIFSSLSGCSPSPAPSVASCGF

[5] = target: T5, Chryseobacterium sp-62563 deamidase V190Y (Chryseobacterium sp-62563)
T5 chain: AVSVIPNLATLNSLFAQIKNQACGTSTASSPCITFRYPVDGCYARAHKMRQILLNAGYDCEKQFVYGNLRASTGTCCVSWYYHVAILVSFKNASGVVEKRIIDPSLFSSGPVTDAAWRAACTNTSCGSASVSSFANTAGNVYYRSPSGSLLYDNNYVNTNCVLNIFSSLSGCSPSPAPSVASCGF

[6] = target: T6, Chryseobacterium sp-62563 deamidase S256D (Chryseobacterium sp-62563)
T6 chain: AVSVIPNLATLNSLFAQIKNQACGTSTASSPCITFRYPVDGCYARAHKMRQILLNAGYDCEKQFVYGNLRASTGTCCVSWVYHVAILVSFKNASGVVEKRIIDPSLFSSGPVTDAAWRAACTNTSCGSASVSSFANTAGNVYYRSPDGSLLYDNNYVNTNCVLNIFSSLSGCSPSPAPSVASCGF

[7] = target: T7, Chryseobacterium sp-62563 deamidase L260E (Chryseobacterium sp-62563)
T7 chain: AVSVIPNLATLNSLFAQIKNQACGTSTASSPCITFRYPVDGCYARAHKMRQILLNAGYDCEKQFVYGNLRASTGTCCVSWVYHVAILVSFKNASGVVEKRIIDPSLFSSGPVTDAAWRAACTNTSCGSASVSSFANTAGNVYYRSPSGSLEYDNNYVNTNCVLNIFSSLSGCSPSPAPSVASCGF

[8] = target: T8, Chryseobacterium sp-62563 deamidase P285D (Chryseobacterium sp-62563)
T8 chain: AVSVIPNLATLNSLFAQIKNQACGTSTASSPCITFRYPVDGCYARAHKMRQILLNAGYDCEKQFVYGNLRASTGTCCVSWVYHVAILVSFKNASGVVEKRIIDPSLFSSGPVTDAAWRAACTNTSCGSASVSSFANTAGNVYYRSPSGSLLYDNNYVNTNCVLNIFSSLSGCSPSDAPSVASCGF

[9] = target: T9, Chryseobacterium sp-62563 deamidase T268I (Chryseobacterium sp-62563)
T9 chain: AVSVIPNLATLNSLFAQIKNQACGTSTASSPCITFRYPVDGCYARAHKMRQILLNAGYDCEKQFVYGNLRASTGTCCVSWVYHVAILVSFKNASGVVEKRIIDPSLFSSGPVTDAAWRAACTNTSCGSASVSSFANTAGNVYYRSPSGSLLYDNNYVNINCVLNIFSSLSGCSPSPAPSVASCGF

[10] = target: T10, Chryseobacterium sp-62563 deamidase polypeptide (second polypeptide, deamidase domain), wildtype (Chryseobacterium sp-62563)
T10 chain: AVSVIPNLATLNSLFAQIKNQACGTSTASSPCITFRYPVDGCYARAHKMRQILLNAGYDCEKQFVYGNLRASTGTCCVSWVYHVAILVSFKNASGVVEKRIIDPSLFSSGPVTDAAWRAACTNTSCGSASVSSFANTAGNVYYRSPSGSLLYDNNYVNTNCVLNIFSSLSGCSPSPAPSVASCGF

[11] = target: T7, Chryseobacterium sp-62563 deamidase …
[12] = target: T10, Chryseobacterium sp-62563 deamidase …
[13] = target: T11, Chryseobacterium sp-62563 deamidase L260K (Chryseobacterium sp-62563)
T11 chain: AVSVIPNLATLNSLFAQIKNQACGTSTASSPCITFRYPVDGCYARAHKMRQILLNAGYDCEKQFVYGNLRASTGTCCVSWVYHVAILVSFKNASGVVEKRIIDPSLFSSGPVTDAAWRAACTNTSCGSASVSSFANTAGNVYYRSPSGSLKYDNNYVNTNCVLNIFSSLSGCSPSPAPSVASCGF

NanoDSF thermal unfolding temperature [1]: 78.3 ° C. | NanoDSF thermal unfolding temperature [2]: 82 ° C. | NanoDSF thermal unfolding temperature [3]: 78 ° C. | NanoDSF thermal unfolding temperature [4]: 73.4 ° C. | NanoDSF thermal unfolding temperature [5]: 81.5 ° C. | NanoDSF thermal unfolding temperature [6]: 81.5 ° C. | NanoDSF thermal unfolding temperature [7]: 72.6 ° C. | NanoDSF thermal unfolding temperature [8]: 65.8 ° C. | NanoDSF thermal unfolding temperature [9]: 76.2 ° C. | NanoDSF thermal unfolding temperature [10]: 85.3 ° C. | Relative activity of maturated deamidase [11]: 53 % initial rate | Relative activity of maturated deamidase [12]: < 20 % initial rate | Relative activity of maturated deamidase [13]: 73 % initial rate
B1: Chryseobacterium sp-62563 propeptide (first polypeptide, propeptide domain), wildtype (other)
chain: NQDPNLVAKESNETAMKDFGKTVPVGIEKEDGKFKISFMVTAQPYEIKDSKENAAYISMIKTAVENETPIHVFLKANTNEIAKVDKATDDDIRYFKSVFTKEVKEENRK
